Reference: US20260078162A1

Assays:
[1] = biological target: BCMA-CAR with a CD3zeta signaling motif on CAR-Jurkat cells; assay: cell-based or functional assay
[2] = biological target: anti-CD19 chimeric antigen receptor (CAR) on Jurkat NFAT-GFP cells; assay: cell-based or functional assay

| Substance | IC50 of inhibition of BCMA-CAR-Jurkat cell activation (CD69) by NCI-H929 cells [1] [nM] | IC50 of inhibition of CAR-Jurkat activation (NFAT-GFP) by K562 cells [2] [nM] | NFAT-GFP downregulated at the maximum concentration tested [2] [%] |
| --- | --- | --- | --- |
| BCMAwt-Fc fusion protein (pDP39-BCMA ECD-FC) | 36 | – | – |
| CD19 wt-Fc (pDP10 CD19-WT FC) (Fc fusion) | – | 200 | 30 |
